# According to publication PMC13226697, “Stress-induced OMA1-mediated cleavage of AIFM1 suppresses cell growth by controlling mitochondrial OXPHOS activity” (The EMBO Journal, 2026):
# Target: the molecule itself
# Assay: native gel or EMSA; CN-PAGE of mitochondria solubilised in 0.5% digitonin, with or without FCCP, immunoblot with AIFM1 antibodies
protein,measurement,value
"AIFM1^TCS/TEV, soluble product of AIFM1^TCS cleaved by IMS-TEV protease (domain or fragment, murine, additional glycine residue at the N-terminus, left from the TEV site ENLYFQG after TEV processing; Murine AIFM1 from V98, the residue after the replaced R97, to the end of A.A.1-612; Expected molecular weight ~60 kDa including the Myc tag; The dimer is an estimate from CN-PAGE; also called membrane-dislocated AIFM1 variant; soluble AIFM1^TCS/TEV; not shown: 3x Myc, C-terminal, kept) GVMGLGLSPEEKQRRAIASATEGGSVPQIRAPSHVPFLLIGGGTAAFAAARSIRARDPGARVLIVSEDPELPYMRPPLSKELWFSDDPNVTKTLQFRQWNGKERSIYFQPPSFYVSAQDLPNIENGGVAVLTGKKVVHLDVRGNMVKLNDGSQITFEKCLIATGGTPRSLSAIDRAGAEVKSRTTLFRKIGDFRALEKISREVKSITVIGGGFLGSELACALGRKSQASGIEVIQLFPEKGNMGKILPQYLSNWTMEKVKREGVKVMPNAIVQSVGVSGGRLLIKLKDGRKVETDHIVTAVGLEPNVELAKTGGLEIDSDFGGFRVNAELQARSNIWVAGDAACFYDIKLGRRRVEHHDHAVVSGRLAGENMTGAAKPYWHQSMFWSDLGPDVGYEAIGLVDSSLPTVGVFAKATAQDNPKSATEQSGTGIRSESETESEASEITIPPSAPAVPQVPVEGEDYGKGVIFYLRDKVVVGIVLWNVFNRMPIARKIIKDGEQHEDLNEVAKLFNIHED",stoichiometry N,2
